Results from patent US20110217291A1.

Columns and labels:
[1] = molecular target: IgG of IgG Sepharose 6 Fast Flow resin (GE Healthcare); experiment: batch binding of 293F conditioned media to IgG Sepharose, Western blot quantitation, n=2
[2] = molecular target: IgG of IgG Sepharose 6 Fast Flow resin (GE Healthcare); experiment: IgG-Sepharose column, 24 h CHO conditioned media, Western blot

percent of total expressed in IgG Sepharose flow-through (aggregate amount) [1] | percent of total expressed recovered from IgG resin [1] | percent of total applied bound to IgG-Sepharose [2] | percent of total applied in the wash (unbound) [2] | Binder
36% | 82% | 53% | 47% | FcγRIIIA/RIA-CH6 (soluble hybrid receptor: first Ig domain of FcγRIIIA followed by second and third Ig domains of FcγRIA, C-terminal six His tag) (receptor) EDLPKAVVFLEPQWYRVLEKDSVTLKCQGAYSPEDNSTQWFHNESLISSQASSYFIDAATVDDSGEYRCQTNLSTLSDPVQLEVHIGWLLLQVSSRVFTEGEPLALRCHAWKDKLVYNVLYYRNGKAFKFFHWNSNLTILKTNISHNGTYHCSGMGKHRYTSAGISVTVKELFPAPVLNASVTSPLLEGNLVTLSCETKLLLQRPGLQLYFSFYMGSKTLRGRNTSSEYQILTARREDSGLYWCEAATEDGNVLKRSPELELQVLGGSGGHHHHHH
14.2% | 40% | – | – | FcγRIIA/RIA-CH6 (soluble hybrid receptor: first Ig domain of FcγRIIA followed by second and third Ig domains of FcγRIA, C-terminal six His tag) (receptor) AAPPKAVLKLEPPWINVLQEDSVTLTCQGARSPESDSIQWFHNGNLIPTHTQPSYRFKANNNDSGEYTCQTGQTSLSDPVHLTVLSEWLLLQVSSRVFTEGEPLALRCHAWKDKLVYNVLYYRNGKAFKFFHWNSNLTILKTNISHNGTYHCSGMGKHRYTSAGISVTVKELFPAPVLNASVTSPLLEGNLVTLSCETKLLLQRPGLQLYFSFYMGSKTLRGRNTSSEYQILTARREDSGLYWCEAATEDGNVLKRSPELELQVLGGSGGHHHHHH
